Where only a bound is given, the exact number is not on record here.

For test [1], the target named is human PD-1 (human) (UniProt Q15116). The test can be described thus: cell-based or functional assay.
Test [2] has as its target human PD-L1 (human) (UniProt Q9NZQ7). In words: cell-based or functional assay.
Chain of UniProt Q9NZQ7 (Q9NZQ7 19-290 limits assumed): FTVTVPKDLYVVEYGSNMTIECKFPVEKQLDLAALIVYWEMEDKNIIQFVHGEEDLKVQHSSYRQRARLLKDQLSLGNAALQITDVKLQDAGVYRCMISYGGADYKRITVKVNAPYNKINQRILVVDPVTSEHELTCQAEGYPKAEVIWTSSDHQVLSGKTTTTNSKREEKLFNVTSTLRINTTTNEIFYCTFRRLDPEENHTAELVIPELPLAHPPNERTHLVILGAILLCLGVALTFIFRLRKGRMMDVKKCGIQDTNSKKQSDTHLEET

Chain of UniProt Q15116 (Q15116 other isoform, or with tags, fused parts or gaps limits assumed): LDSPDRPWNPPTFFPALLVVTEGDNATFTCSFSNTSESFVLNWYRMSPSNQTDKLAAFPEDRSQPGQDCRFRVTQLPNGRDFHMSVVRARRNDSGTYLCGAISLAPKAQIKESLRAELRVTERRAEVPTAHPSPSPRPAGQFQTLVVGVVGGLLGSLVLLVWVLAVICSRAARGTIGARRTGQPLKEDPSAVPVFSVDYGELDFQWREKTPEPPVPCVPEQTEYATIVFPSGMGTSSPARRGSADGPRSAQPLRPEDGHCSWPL

With “Monoclonal antibody to human PD-1 (EH12, mouse IgG1)”, the expansion of HCV-specific T cells (frequency of CFSE low tetramer labeled CD8+ T cells after 6 days) in test [1] turned out to be 4 fold.

Consider “Monoclonal antibody to human PD-L1 (29E.2A3, mouse IgG2b)”, for which, in test [2], the expansion of HCV-specific T cells (frequency of CFSE low tetramer labeled CD8+ T cells after 6 days) was 4 fold, the fold increase in tetramer+ cells (6-day CFSE proliferation of B*4201 TL9-specific CD8+ T cells) turned out to be 10.3 fold, the fold increase in the frequency of EBV or CMV-specific CD8 T cells (6-day CFSE proliferation) is less than 3.5 fold and the percentage of B*4201 TL9-specific CD8+ T cells after 6-day stimulation with peptide is 12.4%.
